Data published in paper PMC11445239.
Values joined by “and” are separate entries in the source; they are usually repeats but may differ in a detail not shown here. Equal entries are not always repeated.

Columns and labels:
[1] = target: activated (Caspase 11-cleaved) mGSDMD-C39A-C57A-mEGFP (mouse); test: single-molecule TIRF imaging with intensity-based stoichiometry analysis; preformed supported lipid bilayer (Egg PC:PI(4,5)P2 99:1 mol %) on glass incubated with 0.5, 1 or 2 nM protein (pre-cleaved WT or mutants, or full-length at 2 nM) for 1 h, washed 15 times with SLB buffer
[2] = target: activated (Caspase 11-cleaved) mGSDMD-C192A-mEGFP (mouse); test: as above
[3] = target: activated (Caspase 11-cleaved) mGSDMD-mEGFP, mGSDMD(NTD)-mEGFP (mouse); test: as above
[4] = target: activated (Caspase 11-cleaved) mGSDMD-mEGFP, mGSDMD(NTD)-mEGFP (mouse); test: single-molecule TIRF imaging with intensity-based stoichiometry analysis; 2 nM mGSDMD-mEGFP with 20 nM Caspase 11 incubated with LUVs (Egg PC:PI(4,5)P2 99:1 mol %) for 1 h (same pattern at 5 and 2 min and after H2O2), proteoliposomes then fused into a supported lipid bilayer on glass; SLB buffer 150 mM NaCl, 10 mM Hepes pH 7.4
[5] = target: activated (Caspase 11-cleaved) mGSDMD-mEGFP, mGSDMD(NTD)-mEGFP (mouse); test: single-molecule TIRF imaging with intensity-based stoichiometry analysis; preformed supported lipid bilayer of 100% Egg PC (no PI(4,5)P2) incubated with 2 nM active mGSDMD-mEGFP for 1 h, washed

activated (Caspase 11-cleaved) mGSDMD-C39A-C57A-mEGFP (domain or fragment)
stoichiometry N [1]: 2 and 3 and 4

activated (Caspase 11-cleaved) mGSDMD-C192A-mEGFP (domain or fragment)
stoichiometry N [2]: 3 and 2

activated (Caspase 11-cleaved) mGSDMD-mEGFP, mGSDMD(NTD)-mEGFP (domain or fragment)
stoichiometry N [3]: 5 and 6 and 9
stoichiometry N [4]: 2 and 3
stoichiometry N [5]: 2
